Assay results published in the supplement of paper PMC10201428.
± gives the standard deviation of the averaged measurements.

Columns and labels:
[1] = system: VchCAST RNA-guided transposition machinery (E. coli BL21(DE3) host, lacZ target); assay: relative integration efficiency (T-LR orientation) vs wild-type transposon end (log2 (normalized fold change)); transposon end mutated: right end (5 bp flank + 75 bp right end); higher = more efficient transposition
Summary of the method: (§1)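 Co-transformation of E. coli BL21(DE3) combined a pUC57 mini-transposon donor, holding barcoded pools of 1549 left-end or 1849 right-end variants, with a T7-driven plasmid encoding a CRISPR array, tniQ-cas8-cas7-cas6 and tnsA-tnsB-tnsC. After plating with 0.1 mM IPTG at 37°C for 18 h, input plasmids and genomic integration junctions were PCR-amplified and Illumina-sequenced across two biological output replicates, with four reference barcodes. Relative integration efficiency is the normalised, log-transformed output/input barcode fold change.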

[2] = system: VchCAST RNA-guided transposition machinery (E. coli BL21(DE3) host, lacZ target); assay: relative integration efficiency (T-RL orientation) vs wild-type transposon end (log2 (normalized fold change)); transposon end mutated: right end (5 bp flank + 75 bp right end); higher = more efficient transposition
Summary of the method: as §1

| Sequence | relative integration efficiency (log2) [1] | relative integration efficiency (log2) [2] |
| --- | --- | --- |
| ACATTTGTTGATACACCCATAAATTGATATTGCCAACCATAAGTTGATATTTTTCACAACCATATATTGATATCTCCTCTGATCATAGTCAGACCAACATTGCTACGACCCGTATTCGCACCGACAC | 0.0942 ± 0.34 | -0.899 ± 0.17 |
| ACATTTGTTGATACACCCATAAATTGATATTGCCAACCATAAGTTGATATTTTTCACACCCATAAATTGATAATTACTCTGATCATAGTCAGACCAACATTGCTACGACCCGTATTCGCACCGACAC | 0.0375 ± 0.27 | -0.7 ± 0.21 |
| ACATTTGTTGATACACCCATAAATTGATATTGCCAACCATAAGTTGATATTTTTCACACCCATAAATTGATATTGCCTCTGATCATAGTCAGACCAACATTGCTACGACCCGTATTCGCACCGACAC | -0.37 ± 0.1 | -0.773 ± 0.11 |
| ACATTTGTTGATACACCCATAAATTGATATTGCCAACCATAAGTTGATATTTTTCAGTGGGTATTTAACTATAACGCTCTGATCATAGTCAGACCAACATTGCTACGACCCGTATTCGCACCGACAC | 2.3 ± 0.092 | -1.31 ± 0.4 |
| ACATTTGTTGATACACCCATAAATTGATATTGCCAACCATATATTGATATCTCTCACAACCATAAAATGATAATTACTCTGATCATAGTCAGACCAACATTGCTACGACCCGTATTCGCACCGACAC | -0.955 ± 0.52 | -1.22 ± 0.23 |
| ACATTTGTTGATACACCCATAAATTGATATTGCCAACCATATATTGATATCTCTCACAACCATAAAGTGATATTTACTCTGATCATAGTCAGACCAACATTGCTACGACCCGTATTCGCACCGACAC | -0.365 ± 0.021 | -1.21 ± 0.24 |
| ACATTTGTTGATACACCCATAAATTGATATTGCCAACCATATATTGATATCTCTCACAACCATAAGTTGATATTTTCTCTGATCATAGTCAGACCAACATTGCTACGACCCGTATTCGCACCGACAC | 1.12 ± 0.16 | 0.0747 ± 0.27 |
| ACATTTGTTGATACACCCATAAATTGATATTGCCAACCATATATTGATATCTCTCACAACCATATATTGATATCTCCTCTGATCATAGTCAGACCAACATTGCTACGACCCGTATTCGCACCGACAC | -0.214 ± 0.48 | -1.29 ± 0.34 |
| ACATTTGTTGATACACCCATAAATTGATATTGCCAACCATATATTGATATCTCTCACACCCATAAATTGATAATTACTCTGATCATAGTCAGACCAACATTGCTACGACCCGTATTCGCACCGACAC | 0.0732 ± 0.11 | -1.1 ± 0.15 |
| ACATTTGTTGATACACCCATAAATTGATATTGCCAACCATATATTGATATCTCTCACACCCATAAATTGATATTGCCTCTGATCATAGTCAGACCAACATTGCTACGACCCGTATTCGCACCGACAC | -0.587 ± 0.35 | -1.11 ± 0.06 |
| ACATTTGTTGATACACCCATAAATTGATATTGCCAACCATATATTGATATCTCTCAGTGGGTATTTAACTATAACGCTCTGATCATAGTCAGACCAACATTGCTACGACCCGTATTCGCACCGACAC | 2.26 ± 0.088 | -1.7 ± 0.32 |
| ACATTTGTTGATACACCCATAAATTGATATTGCCACCCATAAATTGATAATTATCACAACCATAAAATGATAATTACTCTGATCATAGTCAGACCAACATTGCTACGACCCGTATTCGCACCGACAC | -0.453 ± 0.047 | -0.382 ± 0.087 |
| ACATTTGTTGATACACCCATAAATTGATATTGCCACCCATAAATTGATAATTATCACAACCATAAAGTGATATTTACTCTGATCATAGTCAGACCAACATTGCTACGACCCGTATTCGCACCGACAC | -0.376 ± 0.6 | -0.75 ± 0.089 |
| ACATTTGTTGATACACCCATAAATTGATATTGCCACCCATAAATTGATAATTATCACAACCATAAGTTGATATTTTCTCTGATCATAGTCAGACCAACATTGCTACGACCCGTATTCGCACCGACAC | -0.238 ± 0.32 | -0.676 ± 0.16 |
| ACATTTGTTGATACACCCATAAATTGATATTGCCACCCATAAATTGATAATTATCACAACCATATATTGATATCTCCTCTGATCATAGTCAGACCAACATTGCTACGACCCGTATTCGCACCGACAC | -0.478 ± 0.18 | -1.14 ± 0.14 |
| ACATTTGTTGATACACCCATAAATTGATATTGCCACCCATAAATTGATAATTATCACACCCATAAATTGATAATTACTCTGATCATAGTCAGACCAACATTGCTACGACCCGTATTCGCACCGACAC | -0.0383 ± 0.28 | -0.597 ± 0.26 |
| ACATTTGTTGATACACCCATAAATTGATATTGCCACCCATAAATTGATAATTATCACACCCATAAATTGATATTGCCTCTGATCATAGTCAGACCAACATTGCTACGACCCGTATTCGCACCGACAC | -0.216 ± 0.095 | -0.842 ± 0.076 |
| ACATTTGTTGATACACCCATAAATTGATATTGCCACCCATAAATTGATAATTATCAGTGGGTATTTAACTATAACGCTCTGATCATAGTCAGACCAACATTGCTACGACCCGTATTCGCACCGACAC | 2.03 ± 0.071 | -1.42 ± 0.14 |

| Sequence | relative integration efficiency (log2) [1] | relative integration efficiency (log2) [2] |
| --- | --- | --- |
| ACATTTGTTGATACACCCATAAATTGATATTGCCACCCATAAATTGATATTGCTCACAACCATAAAATGATAATTACTCTGATCATAGTCAGACCAACATTGCTACGACCCGTATTCGCACCGACAC | -0.156 ± 0.22 | -0.874 ± 0.16 |
| ACATTTGTTGATACACCCATAAATTGATATTGCCACCCATAAATTGATATTGCTCACAACCATAAAGTGATATTTACTCTGATCATAGTCAGACCAACATTGCTACGACCCGTATTCGCACCGACAC | 0.0649 ± 0.043 | -0.811 ± 0.21 |
| ACATTTGTTGATACACCCATAAATTGATATTGCCACCCATAAATTGATATTGCTCACAACCATAAGTTGATATTTTCTCTGATCATAGTCAGACCAACATTGCTACGACCCGTATTCGCACCGACAC | -0.179 ± 0.051 | -1.05 ± 0.16 |
| ACATTTGTTGATACACCCATAAATTGATATTGCCACCCATAAATTGATATTGCTCACAACCATATATTGATATCTCCTCTGATCATAGTCAGACCAACATTGCTACGACCCGTATTCGCACCGACAC | 0.239 ± 0.14 | -1.05 ± 0.22 |
| ACATTTGTTGATACACCCATAAATTGATATTGCCACCCATAAATTGATATTGCTCACACCCATAAATTGATAATTACTCTGATCATAGTCAGACCAACATTGCTACGACCCGTATTCGCACCGACAC | 0.226 ± 0.19 | -1.21 ± 0.15 |
| ACATTTGTTGATACACCCATAAATTGATATTGCCACCCATAAATTGATATTGCTCACACCCATAAATTGATATTGCCTCTGATCATAGTCAGACCAACATTGCTACGACCCGTATTCGCACCGACAC | 0.0807 ± 0.15 | -0.939 ± 0.095 |
| ACATTTGTTGATACACCCATAAATTGATATTGCCACCCATAAATTGATATTGCTCAGTGGGTATTTAACTATAACGCTCTGATCATAGTCAGACCAACATTGCTACGACCCGTATTCGCACCGACAC | 2.19 ± 0.12 | -1.66 ± 0.34 |
| ACATTTGTTGATACATCCATAAAATGATAATTACAGCCATAAATTGATAATTATCACAGCCATAAATTGATATTGCCTCTGATCATAGTCAGACCAACATTGCTACGACCCGTATTCGCACCGACAC | -0.607 ± 0.2 | -0.851 ± 0.072 |
| ACATTTGTTGATACATGCATAAAATGATAATTACACCCATAAATTGATAATTATCACACCCATAAATTGATATTGCCTCTGATCATAGTCAGACCAACATTGCTACGACCCGTATTCGCACCGACAC | -0.66 ± 0.08 | -0.321 ± 0.046 |
| ACATTTGTTGATACATGGTTAAAATGATAATTACACCCATAAATTGATAATTATCACACCCATAAATTGATATTGCCTCTGATCATAGTCAGACCAACATTGCTACGACCCGTATTCGCACCGACAC | -2.05 ± 0.37 | -1.62 ± 0.088 |
| ACATTTGTTGATACCACCATAAAATGATAATTACACCCATACATTGATAATTATCACACCCAATTTAACTATAACGCTCTGATCATAGTCAGACCAACATTGCTACGACCCGTATTCGCACCGACAC | 0.947 ± 0.23 | -2.1 ± 0.38 |
| ACATTTGTTGATACCACCATAAAATGATAATTACACCCCTAAATTGATAATTATCACACCCAATTTAACTATAACGCTCTGATCATAGTCAGACCAACATTGCTACGACCCGTATTCGCACCGACAC | 0.973 ± 0.2 | -2.41 ± 0.33 |
| ACATTTGTTGATACCACCATAAAATGATAATTACACCCCTACATTGATAATTATCACACCCAATTTAACTATAACGCTCTGATCATAGTCAGACCAACATTGCTACGACCCGTATTCGCACCGACAC | -0.284 ± 0.22 | -3.75 ± 0.28 |
| ACATTTGTTGATACCACCATAAAATGATAATTACCCCCATAAATTGATAATTATCACCCCCATAAATTGATATTGCCTCTGATCATAGTCAGACCAACATTGCTACGACCCGTATTCGCACCGACAC | 1.35 ± 0.29 | 0.364 ± 0.15 |
| ACATTTGTTGATACCACCATAAAATGATAATTCCACCCATAAATTGATAATTATCACACCCAATTTAACTATAACGCTCTGATCATAGTCAGACCAACATTGCTACGACCCGTATTCGCACCGACAC | 2.52 ± 0.15 | -1.1 ± 0.17 |
| ACATTTGTTGATACCACCATAAAATGATAATTCCACCCATACATTGATAATTATCACACCCAATTTAACTATAACGCTCTGATCATAGTCAGACCAACATTGCTACGACCCGTATTCGCACCGACAC | 0.789 ± 0.33 | -2.81 ± 0.42 |
| ACATTTGTTGATACCACCATAAAATGATAATTCCACCCCTAAATTGATAATTATCACACCCAATTTAACTATAACGCTCTGATCATAGTCAGACCAACATTGCTACGACCCGTATTCGCACCGACAC | 0.417 ± 0.16 | -2.92 ± 0.31 |
